Experimental data: patent publication EP4537907A1

Target: recombinant human CD248 (internally produced) (human) (UniProt Q9HCU0)
Test: competition ELISA: non-purified Fab E. coli supernatant mixed 1:1 with biotinylated human CD248, added to immobilised human IGFBP5, Streptavidin-HRP

Sequence of recombinant human CD248 (internally produced) (human) (Q9HCU0 18-687 limits assumed): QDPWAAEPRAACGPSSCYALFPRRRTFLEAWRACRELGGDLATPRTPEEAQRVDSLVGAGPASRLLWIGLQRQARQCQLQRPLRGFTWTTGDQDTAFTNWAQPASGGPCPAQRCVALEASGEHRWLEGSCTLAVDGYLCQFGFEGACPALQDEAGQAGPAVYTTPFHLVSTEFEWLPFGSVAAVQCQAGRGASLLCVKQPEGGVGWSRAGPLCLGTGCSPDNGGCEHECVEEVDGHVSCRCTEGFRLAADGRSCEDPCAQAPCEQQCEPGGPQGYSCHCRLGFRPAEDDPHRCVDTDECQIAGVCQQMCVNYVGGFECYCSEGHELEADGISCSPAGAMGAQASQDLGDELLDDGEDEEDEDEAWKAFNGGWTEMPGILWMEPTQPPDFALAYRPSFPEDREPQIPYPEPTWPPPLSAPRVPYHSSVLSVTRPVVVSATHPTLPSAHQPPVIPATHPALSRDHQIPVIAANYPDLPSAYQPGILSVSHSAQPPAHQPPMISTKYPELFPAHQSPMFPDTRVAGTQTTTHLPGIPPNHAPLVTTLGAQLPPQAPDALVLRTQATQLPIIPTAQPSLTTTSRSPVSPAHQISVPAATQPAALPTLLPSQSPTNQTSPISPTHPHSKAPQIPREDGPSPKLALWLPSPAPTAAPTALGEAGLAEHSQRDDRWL

fold inhibition of CD248-IGFBP5 binding over the negative control antibody (Palivizumab): > 10 fold
B1: YU1023-A02 Fab (Fab, V domains shown)
VH: QVQLVESGPGLVKPSQTLSLTCTVSGGSISSGGYYWSWIRQHPGKGLEWIGYIYYSGSTYYNPSLKSRVTISVDTSKNQFSLKLSSVTAADTAVYYCARVRGRSATYFDYWGQGTTVTVSS
VL: QSVLTQPPSVSGAPGQRVTISCTGSSSNIGAGYDVRWYQQLPGTAPKLLIYANNNRPSGVPDRFSGSKSGTSASLAITGLQTEDEADYYCQSYDISLSGSLFGGGTKLTVL
